From patent publication US7122190

Tests used:
[1] = target: viral gp41 (HIV-1IIIB transmembrane protein on infected cells and virions) (HIV-1IIIB) (UniProt P04578); experiment: cell-based or functional assay
[2] = target: viral gp41 of HIV-1 (on virions and HIV-1 infected cells) (HIV-1) (UniProt P03377); experiment: cell-based or functional assay

Substance | Cell fusion (IC90) [1] [µM] | HIV infectivity (IC90) [1] [µM] | 90% block of syncytia formation (HIV-1IIIB cell fusion assay) [2] [nM] | 90% neutralisation of HIV-1IIIB infection [2] [nM]
M41 (maltose binding protein fused to the extracellular domain of HIV-1 gp41, residues 540-686) (from UniProt P03377 540-686) | > 50 | > 16 |  | 
M41-P, M41 with an Ile to Pro mutation at position 578 (from UniProt P03377 540-686) |  |  | 85 | 70
